Experimental data published in patent US9062353B2, “Electrically conductive polymer electrodes with incorporated viruses” (THE REGENTS OF THE UNIVERSITY OF CALIFORNIA, priority 2010, dated 2015).

Tests used:
Settings in all cases: phage-displayed peptide
PSMA dimer = target: T1, PSMA dimer (Homo sapiens, UniProt Q04609); experiment: phage-based ELISA, binding to PSMA dimer
T1 construct: purchased Molecular Express, Inc
Experimental: (§1) A Nunc Maxisorp plate was coated with 10 μg/mL PSMA monomer or dimer protein for 1 h. The coating solution was removed, and the plate was blocked for 1 h with 0.2% BSA in PBS and washed 5 times with PT (300 μL/well). The wells were then incubated with phage displaying PSMA-binding peptides (100 μL/well) at the indicated concentrations for 1 h. After washing five times with PT, the plate was incubated with HRP-conjugated anti-M13 phage antibody (100 μL, 1:5000) in 0.1% PBT buffer for 30 min, and washed three times with PT, and twice with PBS. The plate was then developed using an o-phenylenediamine dihydrochloride/H2O2 solution (100 μL, 1 mg mL-1/0.02%) in citric acid buffer (50 mM citric acid, 50 mM Na2HPO4, pH 5.0), and the HRP activity was measured as absorbance at 450 nm.
The previously reported PSMA binding peptides, PSMA-1 (amino acid sequence, […] (SEQ ID NO:3)) and PSMA-2 (amino acid sequence, […] (SEQ ID NO:4)), were compared for affinity to the homodimeric and monomeric isoforms of PSMA. Details regarding PSMA-1 and PSMA-2 may be found in Yang, L. M. et al., Anal. Chem. 2006, 78, 3265-3270, which is incorporated by reference herein. Though diagnostically irrelevant, the monomeric isoform of PSMA provides a control for the binding specificity. […] Chosen for its specificity to the PSMA dimer, the PSMA-2 sequence provided the template for an affinity maturation library targeting the PSMA dimer.

PSMA monomer = target: T2, PSMA monomer (Homo sapiens, UniProt Q04609); experiment: phage-based ELISA, binding to PSMA monomer
T2 construct: purchased Molecular Express, Inc
T2 sequence (Q04609 whole entry): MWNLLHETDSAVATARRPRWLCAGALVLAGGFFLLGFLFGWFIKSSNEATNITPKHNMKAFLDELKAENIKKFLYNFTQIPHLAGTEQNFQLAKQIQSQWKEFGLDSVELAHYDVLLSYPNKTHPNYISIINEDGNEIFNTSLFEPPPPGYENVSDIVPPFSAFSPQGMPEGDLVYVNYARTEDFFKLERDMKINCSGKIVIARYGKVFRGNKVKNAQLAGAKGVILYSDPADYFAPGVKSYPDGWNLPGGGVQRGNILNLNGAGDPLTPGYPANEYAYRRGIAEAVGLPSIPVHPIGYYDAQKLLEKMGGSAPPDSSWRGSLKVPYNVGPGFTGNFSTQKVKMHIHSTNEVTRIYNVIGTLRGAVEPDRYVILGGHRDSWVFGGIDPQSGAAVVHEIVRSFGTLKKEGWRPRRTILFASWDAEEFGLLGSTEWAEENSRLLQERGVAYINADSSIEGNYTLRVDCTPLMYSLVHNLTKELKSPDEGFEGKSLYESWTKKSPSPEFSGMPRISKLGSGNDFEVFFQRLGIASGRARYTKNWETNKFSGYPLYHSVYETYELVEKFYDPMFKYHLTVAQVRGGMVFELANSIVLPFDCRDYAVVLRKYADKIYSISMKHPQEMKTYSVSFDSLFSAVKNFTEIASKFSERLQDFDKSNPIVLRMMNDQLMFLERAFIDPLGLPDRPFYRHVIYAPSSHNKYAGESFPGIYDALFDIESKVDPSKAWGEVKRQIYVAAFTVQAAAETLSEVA
Experimental: as §1
The previously reported PSMA binding peptides, PSMA-1 (amino acid sequence, […] (SEQ ID NO:3)) and PSMA-2 (amino acid sequence, […] (SEQ ID NO:4)), were compared for affinity to the homodimeric and monomeric isoforms of PSMA. Details regarding PSMA-1 and PSMA-2 may be found in Yang, L. M. et al., Anal. Chem. 2006, 78, 3265-3270, which is incorporated by reference herein. Though diagnostically irrelevant, the monomeric isoform of PSMA provides a control for the binding specificity. […]

TfR = TfR (Homo sapiens, UniProt P02786); experiment: binding specificity, transferrin receptor
TfR, sequence (P02786 whole entry, species assumed): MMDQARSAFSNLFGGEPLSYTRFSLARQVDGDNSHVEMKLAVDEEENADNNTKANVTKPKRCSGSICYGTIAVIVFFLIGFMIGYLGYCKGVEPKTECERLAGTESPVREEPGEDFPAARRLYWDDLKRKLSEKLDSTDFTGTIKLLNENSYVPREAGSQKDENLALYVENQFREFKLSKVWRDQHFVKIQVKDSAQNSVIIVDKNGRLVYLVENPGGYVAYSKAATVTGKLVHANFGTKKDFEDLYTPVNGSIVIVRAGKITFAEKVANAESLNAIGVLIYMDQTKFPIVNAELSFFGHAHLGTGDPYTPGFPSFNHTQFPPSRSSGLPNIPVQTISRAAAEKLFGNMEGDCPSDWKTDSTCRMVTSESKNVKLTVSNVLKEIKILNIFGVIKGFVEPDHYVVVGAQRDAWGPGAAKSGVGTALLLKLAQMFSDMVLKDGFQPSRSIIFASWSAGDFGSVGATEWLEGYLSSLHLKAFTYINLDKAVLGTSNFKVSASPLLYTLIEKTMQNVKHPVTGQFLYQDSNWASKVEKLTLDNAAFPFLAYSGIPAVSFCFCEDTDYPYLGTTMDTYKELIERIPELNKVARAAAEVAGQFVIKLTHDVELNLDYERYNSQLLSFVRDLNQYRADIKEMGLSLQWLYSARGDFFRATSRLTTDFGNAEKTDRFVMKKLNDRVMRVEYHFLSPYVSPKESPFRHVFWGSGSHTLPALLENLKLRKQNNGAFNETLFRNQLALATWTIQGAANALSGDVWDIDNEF

casein = experiment: binding specificity, casein

T1 sequence (Q04609 whole entry): as the sequence (Q04609 whole entry) above

Sequence | binding to PSMA dimer (PSMA dimer) | binding to PSMA monomer (PSMA monomer) | binding to TfR (TfR) | binding to casein (casein)
CALCEFLG (displayed on M13 phage) [PSMA-1] | binds to both isoforms of PSMA | binds to both isoforms of PSMA | – | –
LDCVEVFQNSCDW (displayed on M13 phage) [PSMA-2] | binds with high affinity and specificity to the PSMA dimer | – | – | –
SECVEVFQNSCDW (displayed on M13 phage) [PSMA-3] | specific binding for the PSMA dimer | not PSMA monomer | not | not
